# Reference: patent publication US20090298167A1 (Pfizer, published 2009)
# Numbering of substitutions follows the chain as printed. In names and notes the source's numbering stands.
# T1: human gamma common chain expressed on CHO cells (human, UniProt P31785 23-369)
# T1 construct: whole, on cells; Control protein; also called human IL-2R-γ common subunit; human gamma (γ) common chain
# T1 sequence (looked up): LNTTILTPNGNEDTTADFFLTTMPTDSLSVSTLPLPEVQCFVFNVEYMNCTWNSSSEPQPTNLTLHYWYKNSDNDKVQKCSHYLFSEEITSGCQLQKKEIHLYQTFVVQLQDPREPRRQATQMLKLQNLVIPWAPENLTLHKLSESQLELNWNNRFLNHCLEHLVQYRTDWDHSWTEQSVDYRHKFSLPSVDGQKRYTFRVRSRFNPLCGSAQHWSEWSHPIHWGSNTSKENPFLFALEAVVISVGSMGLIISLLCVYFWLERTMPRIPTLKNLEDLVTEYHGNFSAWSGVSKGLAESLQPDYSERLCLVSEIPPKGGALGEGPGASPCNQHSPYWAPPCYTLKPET
# T2: human IL-2Rβ (human, UniProt P14784 27-239)
# T2 construct: Bought
# T2 sequence (looked up): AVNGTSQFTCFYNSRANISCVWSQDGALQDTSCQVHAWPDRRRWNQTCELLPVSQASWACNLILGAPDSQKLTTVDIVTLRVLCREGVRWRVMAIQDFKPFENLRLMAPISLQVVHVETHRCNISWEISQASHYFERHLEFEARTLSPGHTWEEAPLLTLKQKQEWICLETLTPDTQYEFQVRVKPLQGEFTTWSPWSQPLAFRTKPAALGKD
# B1: AbP (antibody, human IgG1, V domains shown)
# VH: QVQLQESGPGLVKPSETLSLTCAVSGYSISSGYYWGWIRQPPGKGLEWIGSISHTGNTYYNPPLKSRVTISVDTSKNQFSLKLSSVTAADTAVYYCARGGGISRPEYWGQGTLVTVSS
# VL: SSELTQDPAVSVALGQTVRITCQGDSLRTYYASWYQQKPGQAPVLVIYGKHKRPSGIPDRFSGSSSGNTASLTITGAQAEDEADYYCVSRSAKGNPHVLFGGGTQLTVL
# notes: Human IgG1 triple-mutant (L234A, L235A, G237A); Framework limits derived; also called VHP/VL20; VHPTM/VL20
# B2: AbT (antibody, human IgG1, V domains shown)
# VH: B1 VH
# VL: B1 VL with S89A, A92N
# notes: Human IgG1 triple-mutant (L234A, L235A, G237A); Framework limits derived; also called VHP/VL9; VHPTM/VL9
# B3: AbR (antibody, human IgG1, V domains shown)
# VH: B1 VH with G99F, G100M, I102F, S103G
# VL: B1 VL with S89T, A92V
# notes: Purified form: human IgG1 double-mutant (L234A, G237A); Framework limits derived; also called VH3/VL18; VH3DM/VL18
# B4: AbS (antibody, human IgG1, V domains shown)
# VH: B1 VH
# VL: B1 VL with V88M, A92I, K93W
# notes: Human IgG1 triple-mutant (L234A, L235A, G237A); Framework limits derived; also called VHP/VL6; VHPTM/VL6
# B5: parental 18A5 antibody (antibody, V domains shown)
# VH: B1 VH with P14T, Q110K
# VL: SSELTQDPPVSVALGQTVTLTCQGDSLRTYYASWYQQKSGQAPILLLYGKHKRPSGIPDRFSGSTSGDTASLTITGAQAEDEADYYCNSRDSSGNPHVLFGGGTQLTVL
# B6: AbV (antibody, human IgG1, V domains shown)
# VH: B1 VH with G99F, G100M, I102F, S103G
# VL: B1 VL with S89A, A92V, K93V
# B7: AbW (antibody, human IgG1, V domains shown)
# VH: B1 VH with G99F, G100M, I102F, S103G
# VL: B1 VL with S89T, A92V
# Target: T3, human IL-21R expressed on cells (human, UniProt Q9HBE5 20-538)
# Assay: cell-based or functional assay
# T3 sequence (Q9HBE5 20-538 limits assumed): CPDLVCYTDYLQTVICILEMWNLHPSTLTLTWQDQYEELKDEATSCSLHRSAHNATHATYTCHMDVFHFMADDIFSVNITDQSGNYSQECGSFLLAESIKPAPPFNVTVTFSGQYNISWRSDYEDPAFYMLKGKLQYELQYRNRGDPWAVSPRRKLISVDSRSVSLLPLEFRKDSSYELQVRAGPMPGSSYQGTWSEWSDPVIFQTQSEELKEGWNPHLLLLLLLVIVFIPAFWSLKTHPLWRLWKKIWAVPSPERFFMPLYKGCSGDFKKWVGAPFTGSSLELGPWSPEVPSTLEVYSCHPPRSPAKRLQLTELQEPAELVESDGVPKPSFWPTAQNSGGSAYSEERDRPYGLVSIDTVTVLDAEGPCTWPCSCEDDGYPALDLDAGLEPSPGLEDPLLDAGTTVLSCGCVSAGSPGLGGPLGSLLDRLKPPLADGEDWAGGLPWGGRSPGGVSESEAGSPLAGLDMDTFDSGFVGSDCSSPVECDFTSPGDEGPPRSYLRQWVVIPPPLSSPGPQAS
Human IL-21R-BaF3 Proliferation IC50 [nM],Human IL-21R-TF1 Proliferation IC50 [nM],Binder
0.75,3.48,B1
0.67,3.26,B2
0.87,3.94,B3
1.53,5,B4

# Target: T4, murine IL-21R expressed on cells (murine, UniProt Q9JHX3 20-529)
# Assay: cell-based or functional assay
# T4 sequence (Q9JHX3 20-529 limits assumed): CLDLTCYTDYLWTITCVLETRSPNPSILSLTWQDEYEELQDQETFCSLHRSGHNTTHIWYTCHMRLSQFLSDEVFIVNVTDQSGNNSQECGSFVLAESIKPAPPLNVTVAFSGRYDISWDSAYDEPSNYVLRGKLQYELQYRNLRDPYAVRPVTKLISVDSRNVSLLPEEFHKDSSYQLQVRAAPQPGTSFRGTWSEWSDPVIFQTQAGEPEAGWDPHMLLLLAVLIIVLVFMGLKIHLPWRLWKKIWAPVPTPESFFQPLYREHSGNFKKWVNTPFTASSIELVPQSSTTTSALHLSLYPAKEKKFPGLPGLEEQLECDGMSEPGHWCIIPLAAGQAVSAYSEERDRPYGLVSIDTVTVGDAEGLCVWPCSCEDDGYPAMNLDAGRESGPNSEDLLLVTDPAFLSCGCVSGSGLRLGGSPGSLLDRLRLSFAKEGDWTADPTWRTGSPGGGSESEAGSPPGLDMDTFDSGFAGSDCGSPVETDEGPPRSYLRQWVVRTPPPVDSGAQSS
row,Murine IL-21R-BaF3 Proliferation IC50 [nM],Binder
1,0.03,B1
2,0.093,B2
3,0.302,B3
4,0.04,B4

# Target: T3, human IL-21R expressed on cells
# Assay: cell-based or functional assay
# Remark: another data set of the same source
Human IL-21R-BaF3 Neutralization IC50 [nM],Human IL-21R-TF1 Neutralization IC50 [nM],Binder
1.71,14,B5
0.3,2.32,B2
0.56,1.63,B3
0.68,6.67,B4

# Target: T4, murine IL-21R expressed on cells
# Assay: cell-based or functional assay
# Remark: another data set of the same source
row,Murine IL-21R-BaF3 Neutralization IC50 [nM],Binder
1,177,B5
2,0.05,B2
3,0.34,B3
4,0.04,B4

# Target: T3, human IL-21R expressed on cells
# Assay: cell-based or functional assay
# Remark: another data set of the same source
row,Neutralization of B cell proliferation IC50 [nM],Binder
1,1.86,B5
2,0.14,B2
3,0.22,B3
4,0.44,B4

# Target: T3, human IL-21R expressed on cells
# Assay: cell-based or functional assay
# Remark: another data set of the same source
row,"Neutralization of T cell Proliferation IC50 (nM), human primary CD4+ T cells [nM]",Binder
1,0.02,B1
2,1.42,B5
3,0.03,B2
4,0.04,B3
5,0.06,B4

# Target: T4, murine IL-21R expressed on cells
# Assay: cell-based or functional assay
# Remark: another data set of the same source
row,"Neutralization of T cell Proliferation IC50 (nM), murine primary CD8+ T cells [nM]",Binder
1,> 85,B5
2,0.61,B2
3,0.13,B3
4,0.02,B4

# Target: rat IL-21R expressed on cells (rat)
# Assay: cell-based or functional assay
"IC50 (nM) experiment 1, rat T cell proliferation [nM]","IC50 (nM) experiment 2, rat T cell proliferation [nM]",Binder
70.5,59.2,B6
159,94.7,B7
36,27.1,B4

# Target: T3, human IL-21R expressed on cells
# Assay: cell ELISA on transfected CHO cells, 13 nM IgG
# Method: (§1) A subset of binding proteins was tested for binding to rat, cynomolgus monkey, human IL-21R, or human IL-2R-γ common subunit expressed transiently on the surfaces of CHO-PA-Dukx cells. Cells were transfected 48 hr prior to the assay. On the day of the assay, cells were washed gently 5× in PBS containing 0.9 mM CaCl₂ and 0.45 mM MgCl₂ (PBS/CaMg) on an automated plate washer (Titertek, Huntsville, Ala.), and blocked for 1 hr at RT in PBS/CaMg/5% nonfat dry milk. Conditioned media from transiently expressed anti-IL-21R IgGs were serially diluted in blocking buffer and added to the cells in the blocked plates for 1 hr at RT. Cells were washed 5× with PBS/CaMg and then incubated with horseradish peroxidase-conjugated anti-human IgG for 1 hr at RT. Cells were then washed 10× in PBS/CaMg and all of the wash buffer was removed. Cells were incubated with 100 μl TMB until the color reaction reached saturation, stopped with 100 μl of 0.18 M H₂SO₄, and read at A450 on a Perkin Elmer ENVISION™ plate reader.
row,A450 at 13 nM Ab in cell ELISA [A450],Binder
1,1.31,B1
2,1.08,B2
3,1.33,B3
4,1.02,B4

# Target: T5, rat IL-21R expressed on cells (rat)
# T5 construct: whole, on cells; Transiently transfected CHO-PA-Dukx cells
# Assay: cell ELISA on transfected CHO cells, 13 nM IgG
# Method: as §1
row,A450 at 13 nM Ab in cell ELISA [A450],Binder
1,1.03,B1
2,0.994,B2
3,1.11,B3
4,1.17,B4

# Target: T6, cynomolgus monkey IL-21R expressed on CHO cells (cynomolgus monkey)
# T6 construct: whole, on cells
# Assay: cell ELISA on transfected CHO cells, 13 nM IgG
# Method: as §1
row,A450 at 13 nM Ab in cell ELISA [A450],Binder
1,1.31,B1
2,1.22,B2
3,1.35,B3
4,1.22,B4

# Target: T1, human gamma common chain expressed on …
# Assay: cell ELISA on transfected CHO cells, 13 nM IgG
# Method: as §1
row,A450 at 13 nM Ab in cell ELISA [A450],Binder
1,0.112,B1
2,0.102,B2
3,0.109,B3
4,0.118,B4

# Target: T2, human IL-2Rβ
# Assay: BIACORE: antibody captured on anti-human IgG, 50 nM analyte injected
# Method: (§2) The specificity of binding of a subset of transiently expressed anti-IL-21R binding proteins (here antibodies) was tested on a BIACORE™ 2000 surface plasmon resonance instrument. Anti-human-IgG, anti-murine immunoglobulin antibodies, and murine IL-21R-H/F were immobilized onto a research-grade carboxymethyl-dextran chip (CM5) using standard amine coupling. The sensor chip surface was activated with EDC/NHS for 7 min at a flow rate of 20 μl/min. The first flow cell was used as reference surface to correct for bulk refractive index, matrix effects, and nonspecific binding. […] Remaining activated groups were blocked with 1.0 M ethanolamine (pH 8.0). The molecular weights of the anti-human IgG and the anti-murine IgG were both 150 kD, and the molecular weight of the IL-21R monomer was 27 kD.
# (§3) Conditioned media containing anti-IL-21R antibodies and antibody controls (murine anti-human IL-2Rβ and murine anti-human IL-4R(R&D Systems, Minneapolis, Minn.); human anti-human IL-13 (Wyeth, Cambridge, Mass.)) were diluted in HBS/EP buffer supplemented with 0.2% bovine serum and injected onto all four flow cells of the BIACORE™ chip, capturing 500-700 (RU) of antibody on the species-appropriate capture antibody. Following a 5 sec washing period, 50 nM solutions of a positive control protein (murine IL-21R-H/F), two human proteins related to IL-21R (human IL-2Rβ and human sIL-4R(R&D Systems)), or an unrelated His/FLAG-tagged protein (human IL-13-H/F), were injected over the captured antibodies on the chip. The association and dissociation phases were monitored for 120 and 180 sec, respectively, followed by two 5 μl injections of glycine (pH 1.5) to regenerate a fully active capturing surface. All binding experiments were done at 25° C. in HBS/EP buffer. Blank and buffer effects were subtracted for each sensorgram using double referencing.
row,binding result,Binder
1,no binding (tested: 50 nM),B1
2,no binding (tested: 50 nM),B2
3,no binding (tested: 50 nM),B3
4,no binding (tested: 50 nM),B4

# Target: T7, human soluble IL-4R (human, UniProt P24394 26-231, limits assumed)
# T7 construct: soluble; also called human sIL-4R
# Assay: as above
# Method: as §2, §3
# T7 sequence (P24394 26-231 limits assumed): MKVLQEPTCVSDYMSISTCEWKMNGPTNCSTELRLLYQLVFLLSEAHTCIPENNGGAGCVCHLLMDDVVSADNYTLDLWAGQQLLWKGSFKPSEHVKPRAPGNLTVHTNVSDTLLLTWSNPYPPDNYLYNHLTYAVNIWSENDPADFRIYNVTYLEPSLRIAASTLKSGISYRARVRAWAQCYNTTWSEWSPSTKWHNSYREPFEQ
row,binding result,Binder
1,no binding (tested: 50 nM),B1
2,no binding (tested: 50 nM),B2
3,no binding (tested: 50 nM),B3
4,no binding (tested: 50 nM),B4

# Target: T8, human IL-13-His/FLAG (human, UniProt P35225 35-146, limits assumed)
# T8 construct: Unrelated His/FLAG-tagged control; also called human IL-13-H/F
# Assay: as above
# Method: as §2, §3
# T8 sequence (P35225 35-146 limits assumed): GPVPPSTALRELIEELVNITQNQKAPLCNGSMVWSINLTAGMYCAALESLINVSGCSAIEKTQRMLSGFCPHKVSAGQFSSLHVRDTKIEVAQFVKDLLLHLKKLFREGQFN
row,binding result,Binder
1,no binding (tested: 50 nM),B1
2,no binding (tested: 50 nM),B2
3,no binding (tested: 50 nM),B3
4,no binding (tested: 50 nM),B4
